# From article PMC5103180
# Legend:
# [1] = target: PFE1605w‐C (Plasmodium falciparum); test: fluorescence polarisation; 0.5 μM 5-FAM-labelled PFE1605w-C titrated with unlabelled band 3 cytosolic domain (or BSA as negative control); 20°C; 50 mM NaCl, 20 mM Na2HPO4 pH 7.0; single-site model
# [2] = target: ATS‐C fragment of PfEMP1 variant PFL0030c (VAR2CSA) (Plasmodium falciparum); test: fluorescence polarisation; 500 nM 5-FAM-labelled ATS-C variants titrated with unlabelled PFE1605w PHIST domain; 20°C; 50 mM NaCl, 20 mM Na2HPO4 pH 6.5; single-site model
Substance,Kd [1],Kd [2]
band 3 cytosolic domain (from UniProt P02730 1-379) (domain or fragment),1.5 µM,–
PFE1605w PHIST domain (domain or fragment),–,90 µM
